{"source": "patent US20070054344", "key": {"[1]": {"tested_on": "T1, N-terminal-valine fructosylated peptide having an amino acid sequence represented by SEQ ID NO: 2", "T1 sequence": "VHL"}, "f-VHLTPE": {"tested_on": "T2, f-VHLTPE", "T2 sequence": "VHLTPE"}, "f-VHLTP": {"tested_on": "T3, f-VHLTP", "T3 sequence": "VHLTP"}, "f-VHLT": {"tested_on": "T4, f-VHLT", "T4 sequence": "VHLT"}, "[2]": {"tested_on": "T5, fructosyl valyl histidine", "T5 sequence": "VH"}}}
{"substance": "defructosylation enzyme originating from a plant belonging to the family Zingiberaceae (Zingiber officinale rhizome)", "values": [{"measurement": "Absorbance at 700 nm (mAbs), colour development of DA-64 (hydrogen peroxide produced)", "setting": "[1]", "result": 570, "unit": "mAbs"}, {"measurement": "capillary electrophoresis peak area after 16 hours of reaction at 37° C. (defructosylation)", "setting": "[1]", "result": "the peak attributed to f-VHL does not exist and the peak attributed to VHL is increased (area: 32 mABU×sec)"}, {"measurement": "enzyme activity with the peptide as a substrate", "setting": "[1]", "result": "the enzyme is effective on fructosyl valine and at least fructosyl peptides having amino acid sequences represented by SEQ ID NOs: 1 to 5"}, {"measurement": "Absorbance at 700 nm (mAbs), colour development of DA-64 (hydrogen peroxide produced)", "setting": "f-VHLTPE", "result": 223, "unit": "mAbs"}, {"measurement": "enzyme activity with the peptide as a substrate", "setting": "f-VHLTPE", "result": "the enzyme is effective on fructosyl valine and at least fructosyl peptides having amino acid sequences represented by SEQ ID NOs: 1 to 5"}, {"measurement": "Absorbance at 700 nm (mAbs), colour development of DA-64 (hydrogen peroxide produced)", "setting": "f-VHLTP", "result": 198, "unit": "mAbs"}, {"measurement": "enzyme activity with the peptide as a substrate", "setting": "f-VHLTP", "result": "the enzyme is effective on fructosyl valine and at least fructosyl peptides having amino acid sequences represented by SEQ ID NOs: 1 to 5"}, {"measurement": "Absorbance at 700 nm (mAbs), colour development of DA-64 (hydrogen peroxide produced)", "setting": "f-VHLT", "result": 558, "unit": "mAbs"}, {"measurement": "enzyme activity with the peptide as a substrate", "setting": "f-VHLT", "result": "the enzyme is effective on fructosyl valine and at least fructosyl peptides having amino acid sequences represented by SEQ ID NOs: 1 to 5"}, {"measurement": "Absorbance at 700 nm (mAbs), colour development of DA-64 (hydrogen peroxide produced)", "setting": "[2]", "result": 735, "unit": "mAbs"}, {"measurement": "Michaelis constant (Km), Lineweaver-Burk's plots of enzyme activity (glucosone production)", "setting": "[2]", "result": "the Km value of the enzyme for fructosyl valyl histidine: 1.2 mM"}, {"measurement": "absorbance at 550 nm (glucosone produced, glucose oxidase/peroxidase colour system)", "setting": "[2]", "result": "The absorbance was found to increase in accordance with the increase in concentration of fructosyl valyl histidine"}, {"measurement": "enzyme activity with the peptide as a substrate", "setting": "[2]", "result": "the enzyme is effective on fructosyl valine and at least fructosyl peptides having amino acid sequences represented by SEQ ID NOs: 1 to 5"}]}
